In patent US20200199241A1 (Chugai, published 2020):
Changes are numbered by the printed parent chain.

B1: IgG1-F1164 (antibody)
heavy: QVQLQESGPGLVKPSETLSLTCAVSGHSISHDHAWSWVRQPPGEGLEWIGFISYSGITNYNPSLQGRVTISRDNSKNTLYLQMNSLRAEDTAVYYCARSLARTTAMDYWGEGTLVTVSSASTKGPSVFPLAPSSKSTSGGTAALGCLVKDYFPEPVTVSWNSGALTSGVHTFPAVLQSSGLYSLSSVVTVPSSSLGTQTYICNVNHKPSNTKVDKKVEPKSCDKTHTCPPCPAPELLGGDSVFLFPPKPKDYLYISRTPEVTCVVVDVSHEDPEVKFNWYVDGVEVHNAKTKPREEQYNSTYRVVSVLQVLHADWLNGKEYKCKVSNKALPAPIEKTISKAKGQPREPQVYTLPPSRDELTKNQVSLTCLVKGFYPSDIAVEWESNGQPENNYKTTPPVLDSDGSFFLYSKLTVDKSRWQQGNVFSCSVMHEALHYHVTQKSLSLSP
light: not shown
notes: EU numbering; copies: 2 + 2
B2: IgG1-F1245 (antibody)
heavy: B1 heavy with L237R, D240P, S241K, Y252T, S256T, T258E, Q309T, A313Q, Q440R, S442E
light: not shown
notes: EU numbering; copies: 2 + 2
B3: IgG1-F1261 (antibody)
heavy: B1 heavy with L237R, D240P, S241K, Y252T, Q309T, A313Q, Q440R, S442D
light: not shown
notes: EU numbering; copies: 2 + 2
B4: IgG1-F1265 (antibody)
heavy: B1 heavy with L237R, D240P, S241K, Y252T, T258G, Q309T, A313Q, Q440R, S442E
light: not shown
notes: EU numbering; copies: 2 + 2
B5: IgG1-F1260 (antibody)
heavy: B1 heavy with L237R, D240P, S241K, Y252T, A313H, Q440R, S442E
light: not shown
notes: EU numbering; copies: 2 + 2
B6: IgG1-F1247 (antibody)
heavy: B1 heavy with L237R, D240P, S241K, Y252V, T258E, Q309T, A313Q, Q440R, S442E
light: not shown
notes: EU numbering; copies: 2 + 2
B7: IgG1-F1231 (antibody)
heavy: B1 heavy with D240P, Y252T, Q309T, A313Q, Q440K, S442E
light: not shown
notes: EU numbering; copies: 2 + 2
B8: IgG1-F1257 (antibody)
heavy: B1 heavy with L237R, D240P, S241K, Y252T, Q309A, Q440R, S442E
light: not shown
notes: EU numbering; copies: 2 + 2
B9: IgG1-F1263 (antibody)
heavy: B1 heavy with L237R, D240P, S241K, Y252T, Q309T, A313Q, Q440K, S442D
light: not shown
notes: EU numbering; copies: 2 + 2
B10: IgG1-F1255 (antibody)
heavy: B1 heavy with L237R, D240P, S241K, Y252T, Q309T, Q440R, S442E
light: not shown
notes: EU numbering; copies: 2 + 2
B11: IgG1-F1190 (antibody)
heavy: B1 heavy with D240P, Y252T, Q309T, A313Q, H435E, Q440R, S442E
light: not shown
notes: EU numbering; copies: 2 + 2
B12: IgG1-F1165 (antibody)
heavy: B1 heavy with V310P
light: not shown
notes: EU numbering; copies: 2 + 2
B13: IgG1-F1161 (antibody)
heavy: B1 heavy with D240P, Y252T, Y254M, Q309T, A313Q, I334V, S426N, V438Y
light: not shown
notes: EU numbering; copies: 2 + 2
B14: IgG1-F1158 (antibody)
heavy: B1 heavy with L237R, D240P, S241K, Y252T, Q309T, A313Q, V438Y, Q440R, S442E
light: not shown
notes: EU numbering; copies: 2 + 2
B15: IgG1-F1160 (antibody)
heavy: B1 heavy with D240P, Y252T, Y254M, Q309T, V310F, A313Q, S426N, V438Y
light: not shown
notes: EU numbering; copies: 2 + 2
B16: IgG1-F1244 (antibody)
heavy: B1 heavy with L237R, D240P, S241K, Y252T, T258E, Q309T, A313Q, Q440R, S442E
light: not shown
notes: EU numbering; copies: 2 + 2
B17: IgG1-F1188 (antibody)
heavy: B1 heavy with D240P, Y252T, Y254M, Q309A, A313Q, E382A, Y436H, V438Y
light: not shown
notes: EU numbering; copies: 2 + 2
B18: IgG1-F1264 (antibody)
heavy: B1 heavy with L237R, D240P, S241K, Y252T, T258A, Q309T, A313Q, Q440R, S442E
light: not shown
notes: EU numbering; copies: 2 + 2
B19: IgG1-F1197 (antibody)
heavy: B1 heavy with D240P, Y252T, S256T, Q309T, A313Q, Q440R, S442E
light: not shown
notes: EU numbering; copies: 2 + 2
B20: IgG1-F1199 (antibody)
heavy: B1 heavy with D240P, Y252T, S256T, T258E, Q309T, A313Q, Q440R, S442E
light: not shown
notes: EU numbering; copies: 2 + 2
B21: IgG1-F1253 (antibody)
heavy: B1 heavy with L237R, D240P, S241K, Y252T, Q309A, A313Q, Q440R, S442E
light: not shown
notes: EU numbering; copies: 2 + 2
B22: IgG1-F1251 (antibody)
heavy: B1 heavy with L237R, D240P, S241K, Y252V, T258Q, Q309T, A313Q, Q440R, S442E
light: not shown
notes: EU numbering; copies: 2 + 2
B23: IgG1-F1229 (antibody)
heavy: B1 heavy with D240P, Y252T, I255V, Q309T, A313Q
light: not shown
notes: EU numbering; copies: 2 + 2
B24: IgG1-F1163 (antibody)
heavy: B1 heavy with V438Y
light: not shown
notes: EU numbering; copies: 2 + 2
B25: IgG1-F1185 (antibody)
heavy: B1 heavy with D240P, Y252T, Y254M, Q309A, A313Q, E382A, M430L, Y436S, V438Y
light: not shown
notes: EU numbering; copies: 2 + 2
B26: IgG1-F1262 (antibody)
heavy: B1 heavy with L237R, D240P, S241K, Y252T, Q309T, A313Q, Q440K, S442E
light: not shown
notes: EU numbering; copies: 2 + 2
B27: IgG1-F1204 (antibody)
heavy: B1 heavy with D240P, Y252T, S256T, T258Q, Q309T, A313Q, Q440R, S442E
light: not shown
notes: EU numbering; copies: 2 + 2
B28: IgG1-F1196 (antibody)
heavy: B1 heavy with D240P, Y252T, Q309T, A313Q, Q440R, S442E, L443E
light: not shown
notes: EU numbering; copies: 2 + 2
B29: IgG1-F1202 (antibody)
heavy: B1 heavy with D240P, Y252V, S256T, T258E, Q309T, A313Q, Q440R, S442E
light: not shown
notes: EU numbering; copies: 2 + 2
B30: IgG1-F1246 (antibody)
heavy: B1 heavy with L237R, D240P, S241K, Y252V, S256T, Q309T, A313Q, Q440R, S442E
light: not shown
notes: EU numbering; copies: 2 + 2

target: T1, soluble human FcRn complexed with β2-microglobulin (human, UniProt P61769 21-119, limits assumed); test: Biacore SPR, pH 7.0;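 further: test antibodies captured on a Protein L chip with human FcRn flowed over as analyte, KD obtained as the ratio of dissociation to association rate constants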
T1 construct: also called hFcRn
T1 sequence (chain, as listed by the source limits assumed, chain 1 of 2): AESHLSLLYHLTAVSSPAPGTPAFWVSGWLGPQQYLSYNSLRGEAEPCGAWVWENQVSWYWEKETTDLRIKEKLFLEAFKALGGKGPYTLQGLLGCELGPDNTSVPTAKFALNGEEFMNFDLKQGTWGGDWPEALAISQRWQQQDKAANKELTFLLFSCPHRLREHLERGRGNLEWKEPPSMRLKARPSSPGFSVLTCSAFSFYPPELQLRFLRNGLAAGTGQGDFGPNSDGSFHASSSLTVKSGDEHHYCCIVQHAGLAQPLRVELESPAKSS
T1 sequence (P61769 21-119 limits assumed, chain 2 of 2): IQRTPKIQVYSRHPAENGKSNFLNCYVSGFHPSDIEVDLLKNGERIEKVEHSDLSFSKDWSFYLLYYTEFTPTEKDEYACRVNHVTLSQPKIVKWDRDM
Protocol: A kinetic analysis of binding between human FcRn and the aforementioned antibodies was carried out using the BIACORE™ T100 or T200 surface plasmon resonance system (GE Healthcare). The antibodies being tested were captured on the CM4 Sensor Chip (GE Healthcare) on which a suitable amount of Protein L (ACTIGEN® protein (Alltech)) was suitably immobilized by amine coupling. Next, diluted human FcRn and a running buffer used as a blank were injected to allow the human FcRn to interact with the antibody captured on the sensor chip. A buffer consisting of 50 mmol/L sodium phosphate, 150 mmol/L NaCl and 0.05% (w/v) polysorbate 20 (Tween 20®) (pH 7.0 or pH 7.4) was used for the running buffer, and each buffer was also used to dilute the human FcRn. 10 mmol/L glycine-HCl (pH 1.5) was used to regenerate the sensor chip. All measurements of binding were carried out at 25° C. The KD(M) of each antibody to human FcRn was calculated based on kinetics parameters, i.e., the association rate constant ka (1/Ms) and the dissociation rate constant kd (1/s) calculated from a sensorgram obtained by the measurement. The BIACORE™ T100 or T200 Evaluation Software (GE Healthcare) was used to calculate each parameter.

Binder | Kd
B1 | 69.6 nM
B2 | 82 nM
B3 | 135 nM
B4 | 157 nM
B5 | 65.3 nM
B6 | 145 nM
B7 | 97.3 nM
B8 | 78.1 nM
B9 | 124 nM
B10 | 111 nM
B11 | 240 nM
B12 | 16.3 nM
B13 | 1070 nM
B14 | 244 nM
B15 | 288 nM
B16 | 102 nM
B17 | 1720 nM
B18 | 127 nM
B19 | 94.6 nM
B20 | 62.5 nM
B21 | 112 nM
B22 | 277 nM
B23 | 2810 nM
B24 | 154 nM
B25 | 917 nM
B26 | 126 nM
B27 | 118 nM
B28 | 151 nM
B29 | 88.1 nM
B30 | 173 nM
